Reference: patent US11957748B2, “Vaccine to pathogenic immune activation cells during infections” (priority 2019, dated 2024)

The sequences below were run against T1, HLA-E (HLA-E*01033-transfected K562) (Homo sapiens, UniProt P13747) (assay: Peptide-HLA molecule binding assay (HLA-E stabilization)). Conditions: HLA-E Transfected K562 pulsed overnight at 26° C.
T1 construct: expressed in transfected cells; host or cells: K562 (K562/HLA-E, kept under G-418 selection)
Experimental: Peptide binding was assessed by HLA-E stabilization assays using HLA-E*01033-transfected derivative of K562 (K562/HLA-E) cell lines. Briefly, cells were re-suspended in serum-free medium at 1×10^6 cells/ml. Where appropriate, a peptide (see Table 1) was added. After overnight incubation at 26° C., cells were washed with PBS to remove free peptides. Next, HLA surface expression was monitored after staining with anti-HLA-E mAb. Analysis was done on a FACScalibur cytometer (BD Biosciences). Results are presented as the MFI of cells stained with anti-HLA-E mAb.
With “PEIVIYDYM (HIV-1 Pol derived peptide; MHCIb/E-binding antigen)” the “MFI (HLA-E surface expression, anti-HLA-E mAb)” value (“MFI” below) was 7320.
With “RIRTWKSLV (HIV-1 Pol derived peptide; MHCIb/E-binding antigen)” the “MFI” value was 6580.
RMYSPVSIL (MHCIb/E-binding antigen) was tested, and the “MFI” value was 8240.
With TALSEGATP (MHCIb/E-binding antigen) the “MFI” value was 8530.
For “VMATRRNVL (MBt derived peptide) [reference compound]”, the “MFI” value was 7523.
